Measurements: FireProtDB (doi:10.1093/protein/gzt061)

Conditions: Rhodococcus erythropolis; pH 7.1; Thermal; Fluorescence; Potassium phosphate 50mM; transition: 2; reversible: no; whole UniProt chain shown

B1: Limonene-1,2-epoxide hydrolase wild type, Q9ZAG3 (protein)
chain: MTSKIEQPRWASKDSAAGAASTPDEKIVLEFMDALTSNDAAKLIEYFAEDTMYQNMPLPPAYGRDAVEQTLAGLFTVMSIDAVETFHIGSSNGLVYTERVDVLRALPTGKSYNLSILGVFQLTEGKITGWRDYFDLREFEEAVDLPLRG
- Tm: 48.8 °C
